Biological target: PDGF-BB (UniProt P01127 P01127:82-190)
Test: SPR; aptamer on DNA honeycomb on gold; phosphate buffer 137 mM NaCl, 2.7 mM KCl, 1 mM MgCl2, pH 7.4
Settings: chain copies: 2 (homodimer, inferred)
Procedure: The sensing surface was then exposed to the Platelet-derived growth factor aptamer which had been modified, as in Table III (SEQ ID NO:16), to include a 25 bp poly A tail at a concentration of 50 nM in 10 mM Tris pH 7.4 1 M NaCl 1 mM EDTA and incubated for an hour.
The sensing surface was washed with 10.1 mM Na₂HPO₄, 1.8 mM KH₂PO₄, 137 mM NaCl and 2.7 mM KCl, 1 mM MgCl2, pH 7.4. Detection of PDGF was performed in the same buffer where the surface was exposed to increasing concentrations of the ligands and response was recorded.

PDGF-BB, sequence (P01127 82-190, one chain of several): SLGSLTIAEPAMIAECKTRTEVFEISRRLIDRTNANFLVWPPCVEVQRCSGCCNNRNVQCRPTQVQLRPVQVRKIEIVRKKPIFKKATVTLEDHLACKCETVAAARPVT

B1: PDGF-BB aptamer with 25-nt poly A tail (SEQ ID NO: 16), on honeycomb DNA scaffold (ssDNA)
DNA: CACAGGCTACGGCACGTAGAGCATCACCATGATCCTGTGAAAAAAAAAAAAAAAAAAAAAAAAA
Kd: 28 nM

— US20210395743, “SELF-ASSEMBLING NUCLEIC ACID SURFACES FOR BIOSENSOR APPLICATIONS” (INSTITUT NATIONAL DE LA RECHERCHE SCIENTIFIQUE, published 2021)
